This is an account of results in patent US20110070184A1, “METHODS AND COMPOSITIONS FOR TREATING ATHEROSCLEROSIS AND RELATED CONDIDTIONS” (CAROLUS THERPEUTICS, INC., priority 2008, published 2011).

The target of assay [1] is CXCR4 (Homo sapiens, UniProt P61073). Conditions: data not shown.
Assay [2] concerns primary human monocytes. The assay is described as follows: Transwell chemotaxis of primary monocytes toward MIF. In kind it is cell-based. The method, then:
(§1) Chemotaxis assays. […] Pore sizes and intervals were 5 μm and 3 h (monocytes), 3 μm and 1.5 h (T cells), and […] and 1 h (neutrophils).

Assay [3] deals with T1, CCR5 (Homo sapiens, UniProt P51681).
T1 construct: host or cells: L1.2 (mouse pre-B lymphoma) cells
T1 sequence (P51681 whole entry): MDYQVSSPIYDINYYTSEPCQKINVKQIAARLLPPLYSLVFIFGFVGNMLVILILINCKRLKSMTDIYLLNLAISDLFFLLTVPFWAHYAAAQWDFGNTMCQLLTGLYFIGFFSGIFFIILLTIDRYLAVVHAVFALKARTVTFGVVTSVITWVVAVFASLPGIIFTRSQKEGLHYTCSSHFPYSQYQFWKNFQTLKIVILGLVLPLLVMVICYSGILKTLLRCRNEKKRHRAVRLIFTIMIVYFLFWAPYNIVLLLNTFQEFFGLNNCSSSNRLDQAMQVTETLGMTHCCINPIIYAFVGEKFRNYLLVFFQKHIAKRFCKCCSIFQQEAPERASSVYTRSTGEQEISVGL
The assay can be described thus: CCR5 internalization in L1.2 CCR5 transfectants. In kind it is cell-based. Conditions: data not shown.

For assay [4], the system named is neutrophil recruitment. The assay can be described thus: Model of acute MIF-induced peritonitis. In kind it is in vivo, mouse. The conditions noted are these: after 4 h, mice with wild-type bone marrow. The method, then: Model of acute peritonitis. […] After 4 h, peritoneal Iavage was performed and Gr-1^+CD115^−F4/80^− neutrophils were quantified by flow cytometry using the relevant conjugated antibodies.

Assay [5] has as its system leukocyte adhesion and emigration in postcapillary venules. The assay can be described thus: Cremaster microcirculation model, intravital microscopy. Format: in vivo, mouse. Conditions: MIF injected adjacent to the cremaster muscle. The protocol: Cremaster microcirculation model. […] After 4 h, intravital microscopy (Zeiss Axioplan; 20×) was performed in postcapillary venules (Gregory, J. L., et al. (2004) Arthritis Rheum. 50, 3023-3034; Keane, M. P., et al. (2004) J. Immunol. 172, 2853-2860). Adhesion was measured as leukocytes stationary for more than 30 s, emigration as the number of extravascular leukocytes per field.

Assay [6] concerns the target T2, CXCR2 (Homo sapiens, UniProt P25025).
T2 construct: expressed in transfected cells
T2 sequence (P25025 1-360): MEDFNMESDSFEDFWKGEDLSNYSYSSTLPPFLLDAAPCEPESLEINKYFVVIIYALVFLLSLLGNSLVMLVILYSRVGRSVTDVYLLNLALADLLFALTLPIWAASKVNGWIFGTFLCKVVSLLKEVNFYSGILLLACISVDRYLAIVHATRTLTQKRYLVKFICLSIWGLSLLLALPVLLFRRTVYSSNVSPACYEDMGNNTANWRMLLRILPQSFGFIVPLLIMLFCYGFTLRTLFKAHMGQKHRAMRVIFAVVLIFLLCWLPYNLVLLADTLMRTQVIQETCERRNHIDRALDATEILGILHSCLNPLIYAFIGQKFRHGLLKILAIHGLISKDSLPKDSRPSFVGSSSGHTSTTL
The assay can be described thus: CXCR2 internalization assay in HEK293-CXCR2 transfectants (FACS). Format: cell-based. Conditions: stable HEK293 transfectants. The method, then: CXCR internalization assays. […] Internalization was calculated relative to surface expression of buffer-treated cells (100% control) and isotype control staining (0% control): geometric MFI[experimental]−MFI[0% control]/MFI[100% control]−MFI[0% control]×100.

The test system of assay [7] is primary human monocytes. The assay can be described thus: Arrest of primary monocytes on MIF-pretreated human aortic endothelial cells under flow. The conditions noted are these: aortic endothelial cells pretreated with recombinant MIF for 2 h. Format: cell-based. The method, then: Adhesion assays. Arrest of calcein-AM (Molecular Probes)-labeled monocytes, T cells and L1.2 transfectants was quantified in parallel-wall chambers in flow (1.5 dynes/cm^2, 5 min) (Schober, A., et al. (2004) Circulation 109, 380-385; Osterman, G., et al. (2002) Nat. Immunol. 3, 151-158; Weber, C., et al. (1996) J. Cell Biol. 134, 1063-1073).

Assay [8] has as its system primary human neutrophils. The assay is described as follows: Calcium mobilization in neutrophils (Fluo-4 AM). In kind it is cell-based. From the text: (§2) Calcium mobilization. Neutrophils or L1.2 CXCR2 transfectants were labeled with Fluo-4 AM (Molecular Probes).
A general note: Calcium flux is commonly read through the fluorescence of an indicator in the cells.

Assay [9] addresses T2, CXCR2. The assay can be described thus: Calcium mobilization in L1.2 CXCR2 transfectants (Fluo-4 AM). In kind it is cell-based.
Excerpt: as §2

For assay [10], the system named is primary CD3+ T lymphocytes. The assay can be described thus: Transwell chemotaxis of primary CD3+ T cells toward MIF. Conditions: primary CD3+ T lymphocytes devoid of CXCR1 and CXCR2. Format: cell-based, human. The method, then: as §1

Chain of CXCR4 (P61073 whole entry): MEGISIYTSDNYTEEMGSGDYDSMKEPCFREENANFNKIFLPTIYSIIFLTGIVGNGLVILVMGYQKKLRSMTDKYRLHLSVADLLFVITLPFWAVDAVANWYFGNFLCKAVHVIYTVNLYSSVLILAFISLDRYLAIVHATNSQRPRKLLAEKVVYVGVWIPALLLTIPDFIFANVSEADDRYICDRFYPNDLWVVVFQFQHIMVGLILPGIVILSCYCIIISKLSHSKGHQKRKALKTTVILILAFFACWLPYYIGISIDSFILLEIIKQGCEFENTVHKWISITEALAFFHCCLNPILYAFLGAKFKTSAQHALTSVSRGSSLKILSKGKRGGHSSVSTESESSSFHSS

For the molecule `c1ccc(CNCc2ccc(CN3CCCNCCNCCCNCC3)cc2)nc1` [AMD3465], the “specific binding of fluorescein-MIF to CXCR4-bearing Jurkat cells” value in assay [1] is reported as “inhibited”.

B1: MIF: Recombinant macrophage migration inhibitory factor, expressed and purified as described (Bernhagen 1993) (protein)
chain: PMFIVNTNVPRASVPDGFLSELTQQLAQATGKPPQYIAVHVVPDQLMAFGGSSEPCALCSLHSIGKIGGAQNRSYSKLLCGLLAERLRISPDRVYINYYDMNAANVGWNNSTFA
B1: the “MIF concentration that induced optimal chemotaxis” value in assay [2] lay in the range of 2 to 4 nM. Moreover, the “optimum of bell-shaped dose-response curve of induced monocyte migration” value in [2] (MIF in lower chamber, primary human PBMC-derived monocytes) lay within 25 to 50 ng/mL. In assay [3], the CCR5 internalization result is “unable to induce CCR5 internalization”. For the same molecule, the “neutrophil recruitment after intraperitoneal injection” value in [4] was “elicited neutrophil recruitment”. For the same molecule, the “leukocyte adhesion and emigration in postcapillary venules” value in assay [5] was “marked increase”. Also, the “CXCR2 internalization (surface CXCR2 by FACS)” value in assay [6] is listed as “induced CXCR2 internalization”. The “arrest of primary human monocytes under flow conditions” value in assay [7] is given as “substantially increased the arrest”. Also, the calcium influx result in assay [8] is recorded as “induced calcium influx”; in [9] it was “dose-dependently induced calcium influx”. Besides, the T-cell transmigration entry in assay [10] is reported as “dose-dependently induced transmigration”.
